Results as given in paper doi:10.1101/2024.05.01.590489 (bioRxiv, 2024).

B1: Fab1-2 (Fab, V domains shown)
VH: EVQLVESGGGLVQPGGSLRLSCAASGFIFSNYWMSWVRQAPGKGPEWVANIKQDGSANHYVDSVKGRFTISRDNAKNSLYLQMNSLRAEDTAVYYCAREAYQDWNYDYWGQGTLVTVSS
VL: DIQMTQSPSSLSASVGDRVTVTCRASEFISRYLNWYQQKPGKAPKVLIYAASSLQSGVPSRFSGSGSGTDFTLTISSLQPEDFATYYCQQSYSTPYTFGQGTKLEIK
B2: Fab3-1 (Fab, V domains shown)
VH: EVQLLESGGGLVQPGGSLRLSCEASGFTFSRYPMNWVRQAPGKGLEWVSHISASGGTTYYADTVKGRFSISRDNSKNTLYLEMNSLRAEDTAIYFCAKDYPPDEVTMIVVGMPYFDSWGLGTLVSVSS
VL: not shown
B3: Fab3-2 (Fab, V domains shown)
VH: EVQLLESGGGLVQPGGSLRLSCAASGFTFSNYAMSWVRQAPGKGLEWVSLISGSGGSIDYADSVKGRFTISRDNSKNTLYLQMDSLRAEDTAVYYCSKDPIYYDLSGYYAGRIYYFDYWGQGTLVTVSS
VL: EIVMTQSPATLSVSPGDTATLSCRASHSVSRDLAWYQQKPGQAPRLLIYDASTRATGIPARFSGSGSGTEFTLTISSLQSEDFAVYYCQQYINWVTFGPGTKVDIE
B4: Fab3-5 (Fab, V domains shown)
VH: EVQLVESGGGLVQPGGSLRLSCAASGFTFSNYGMNWVRQAPGKGLEWVSYISSGGTIYYADSVKGRFTISRDNAKNSVYLQMNSLRAEDTAVYYCARDPAYCGDDCYTIPAHYFDYWGQGTPVTVS
VL: DIQMTQSPSSLSASVGDRVTITCRTSQSISRYLNWYQQKPGKAPKLLIYAASSLQSGVPSRFTGSGSGTDFTLTISSLQPEDFATYYCQQSYSIPPVTFGQGTRVD
B5: Fab1-5 (Fab, V domains shown)
VH: EVQLVESGGGLVKPGGSLRLSCAASGFMFSSYSMNWVRQAPGKGLEWVSSISRSDSYIDYADSVKGRFTISRDTAMNVLYLQMDSLRAEDTGVYYCARTHVFNMFREVINDDYYGMDVWGQGTTVTVS
VL: ALTQPASVSGSPGQSITISCTGTSSDFGIYNSVSWYQHHPGKAPKLMIFGVSNRPSGVSNRFSGSKSGNTASLSISGLQAEDEADYYCSSFTARSTVVFGGGTKLTVL
B6: Fab2-2 (Fab, V domains shown)
VH: QVQLQESGPGLVKPSVTLSLTCTVSGDSISTYYWSWVRQPPGKGLEWIGYIYYSGNTNYNPSLKSRVTMSVDTSKNQFSLKLNSVTAADTAVYYCARTHHDYGDYRPSYYFDYWGQGTLVTVSS
VL: QSALTQPASVSGSPGQSITISCTGTSSDVGAYDYVSWYQQHPGKAPKLMIYDVSNRPSSGVSNRFSGSKSGNTASLTISGLQAEDEADYYCSSYTSSSTVILGGGTKLTVL
B7: Fab3-6 (Fab, V domains shown)
VH: EVQLVESGGGLVQPGGSLRLSCSASGFHFSSYEMNWVRQAPGKGLEWVSYISSSGTYIDYADSVKGRFTISRDNPANSLYLQMYSLRAEDTAVYYCARRLWFGELPYSYYYGMDVWGQGTTVTVSS
VL: ALTQPASVSGSPGQSITISCTGTSSDIGGYNYVSWYQQHPGKAPELLIFDVSNRPSGVSNRFSGSKSGNTASLTISGLQAEDEADYHCCSYTRTSTVIFGGGTKLTVL
B8: Fab3-7 (Fab, V domains shown)
VH: QVQLQESGPGLVKPSETLSLTCTVSGGSISNYYWNWIRQPPGKGLEWIGYVHYSGSTNYNPSLKSRVSVSVDTSKNQFSLNLGSVTAADTAVYYCARQSRSYYNEVITDPKYNFDYWGQGTLVTVSS
VL: QSALTQPASVSGSPGQSITISCTGTSSDVGGYDYVSWYQQHPGKAPKLMIYDVSNRPSGVSNRFSGSKSGNTASLTISGLQAEDEADYYCSSYTSISTLVFGGGTKLTVL
B9: Fab1-3 (Fab, V domains shown)
VH: VQLVESGGGVVQPGRSLRLSCAASGFSFSSFVFHWVRQAPGKGLEWVAVISYDGSNKNYADSVKGRFTISRDNSKNTLFLQMNSLSADDTAVYYCARGAICSSTTCYLGDSYYFYGMDVWGQGTTVTVSS
VL: LTQPPSVSGAPGQRVTISCTGSRSNIGAGYDVHWYQQLPGTAPKLLIYGNSNRPSGVPDRFSGSKSGTSASLAITGLQTDDEADYYCQSYDSSLSGSVFGGGTKLTVL
B10: Fab1-4 (Fab, V domains shown)
VH: QVQVVESGAEVKKPGASVKVSCKASGYAFTTYYMHWVRQAPGQGLEWMGLINPSGDSITYAQRFQGRVTMTKDTSTSTVYMELSSLRSEDTAIYYCARDPNVAFYYGSGNYYKDNAMDVWGQGTTVTVSS
VL: not shown
B11: Fab2-5 (Fab, V domains shown)
VH: EVQLVESGGGLVKPGGSPRLSCAASGFNFGSYSMNWVRQAPGKGLEWVSSISSSSSYIYYADSVKGRFTISRDNAKHSLYLQVNSLRAEDTAVYYCARDPTTYGYNSAWDKKGWYFDLWGRGTLLTVS
VL: VLTQPPSVSAAPGQMVTISCSGSSSNIGNDYISWYQQLPGTAPKLLIYDNNERPSGIPDRFSGSKSGTSATLGITGVQTGDEADYYCGTWDSSLSAWVFGEGTKLTVV
B12: Fab1-7 (Fab, V domains shown)
VH: QVQLQESGPGLVKPSETLSLTCTVSGDSIRSYYWSWIRQPPGKGLEWIGHIYYSGSTNYKPSLKSRATILVDTSKNQFSLKLRSVTAADTAVYYCAREMTGVAGRGWDHWGQGTLVTVSS
VL: ALTQPPSASGTPGQRVTISCSGSSSNIGSNTVNWYQQLPGTAPKLLIFINNQRPSGVPDRFSGSKSGTSASLAISGLQSEDEADYYCTTWDGSLNGYVFGTRTEVTVL
B13: Fab3-3 (Fab, V domains shown)
VH: QVQLQESGPGLVKSSETLSLTCTVSGESISSSSHYWGWIRQPPGKGLEFLGNVYYLGSTYYNPSLESRVTILLDTSKNQFSLKVNSVTVADTAVYYCARHGAGSYSGLFFDYWGQGARVIVSS
VL: DIQMTQSPSFVSASVGDRVNITCRASQGINSWLAWYQQKPGKAPKLLIYSASSLQSGVPSRFSGSGSGTDFTLTISTLQPEDFATYYCQQANSFPYTFGQGTKVD
B14: Fab1-6 (Fab, V domains shown)
VH: QVQLVESGAEVKQPGASVKVSCKASGYIFTSHNIHWVRKAPGQGLEWMGKINPSGGDANYAQKFQGRVVMTRDTSTNTVYVQLRSLRFEDTAVYYCARVHDFWSGYHRALDIWGQGTMVIVSS
VL: VLTQPPSASGTPGQTVTISCSGSSSNVGSHSVNWYQHLPGTAPKLLIYSNHRRPSGVPDRFSGSKSDTSASLAISGIQSEDEADYYCATWDGRLNVLFGGGTKLTVL
B15: Fab2-7 (Fab, V domains shown)
VH: EVQLLESGGGLVQPGGSLRLSCAASGFTFSTYAMNWVRQAPGKGLEWVAGISASGGSAYYVDSVEGRFTISRDNSNNMLYLQMNSLRAEDTAVYYCAKAVYAITMVRGSITTNYYHYYAMDVWGQGTTVTV
VL: EIVLTQSPGTLSLSPGERATLSCRASQGVSSNYLAWYQQKPGQAPRLLIYDASNRATGIPDRFSGSGSGTDFTLTISRLEPEDFAVYYCQQYGSSPPLTFGGGTKVQI
B16: Fab1-1 (Fab, V domains shown)
VH: EVQLVESGGGLVKPGGSLRLSCAASGVPFSDAWMNWVRQAPGKGLEWVGRIKSKKDGGTADYAAPVKGRFSISRDDSKKMLYLHMNSLKTEDTAVYYCTTEPSGYCSNGLCYTGNYWGQGTLVTVSS
VL: QPVLTQSSSASASLGSSVKLTCTLSSGHITYIIAWHQQQPGKAPRYLMKLEDSGSYNKGSGVPDRFSGSSSGADRYLTISNLQFEDEADYYCETWDSYTRVFGGGTKLT
B17: Fab3-4 (Fab, V domains shown)
VH: AVESGGGLVKPGGPLRLSCAASGFSLSDNYMTWIRQAPGKGLEWVSYISSSGSFINYADSVKGRFTISRDNAKNSLYLQMNSLRAEDTAVYYCARVLSSGGLTTSWRALWYFDVWGRGTLVTVS
VL: TVVTQEPSFSVSPGGTVTLTCGLTSGSVSTSYYPSWYQQTPGQTPRTLIYSTNIRSSGVPDRFSGSILGNKAALTITGAQADDECDYYCVLYMGSGIWVFGGGTKLTVL
B18: Fab2-1 (Fab, V domains shown)
VH: EVQLLESGGGLVQPGKSLRLSCAASGFSFSNYAMSWVRQAPGKGLEWVSGISGSGGSTNYAESVRGRFTISRDNSKNTLYLEMNSLRVEDTAVYYCAKGMSYYDRSGYFWAKYHYGMDVWGQGITVTVSS
VL: not shown
B19: Fab2-3 (Fab, V domains shown)
VH: VQLVESGGGLVKPGGSLRLSCATSGFTFSDYYMSWIRQAPGKGLEWVSYISSSGSTIYYADSVKGRFTMSRDNAKNSLFLRMNSLRAEDTAVYYCARDQITVDREVIRAHYYYGMDVWGQGTTVTVS
VL: DIQMTQSPSSVSASVGDRVTITCRASQGINSYLAWYQQKPGKAPKLLIYAASSLESGVPSRFSGSGSGTDFTLTISSLQPEDFATYYCQQANSFPLTFGGGTKVDI
B20: Fab2-4 (Fab, V domains shown)
VH: EVQLLESGGGLVHPGGSLRLSCAASGFPFSNFAMSWVRQAPGKGLEWVSTISGSSGSTYYADSVRGRFTISRDYSKNTVYLEMNSLRADDTAIYYCAKDRMITFGEVIVKHYDAFEIWGQGTRVAV
VL: DIQMTQSPSSLSASVGDRVTITCRASQTISTNVNWYQQKPGKAPKLLIYAASSLQSGVPSRFSGSGSGTDFTLTISSLQPEDFATFYCQQSYSAPLTFGEGTKV
B21: Fab2-6 (Fab, V domains shown)
VH: VQLLESGGALVQPGGSLRLSCAASGFSFSNYAMSWVRQAPGKGLEWVSTISASGGTTYFADSVKGHFTISRDNSKNTLYLQMDSLRAEDTAVYYCAKDPNYYDLSGYFLGGYYFDYWGQGTLVTVSS
VL: EIVLTQSPGTLSLSPGERATLSCRASQSVRSSYLAWYQQKPGQAPRLLIYGASSRATDIPDRFSGSGSGTDFTLTISRLEPEDFAVYYCQQYGTSPAFGGGTKV

Biological target: AAV9 capsid (adeno-associated virus serotype 9 (AAV9), UniProt Q6JC40)
Experiment: cryo-EM structure

Binder | binding result | stoichiometry N [Fabs per capsid]
B1 | binds | 
B2 | binds | 
B3 | binds | 
B4 | binds | 
B5 | binds | 
B6 | binds | 
B7 | binds | 
B8 | binds | 
B9 | binds | 
B10 | binds | 
B11 | binds | 
B12 | binds | 
B13 | binds | 
B14 |  | ≤ 24
B15 |  | ≤ 60
B16 | binds | 
B17 | binds | 
B18 | binds | 
B19 | binds | 
B20 | binds | 
B21 | binds | 
